Laboratory results published in the RNAGym collection of RNA variant scans (doi:10.1021/acssynbio.7b00057).

B1: Pistol ribozyme (parent)
chain: GGGUCGUUGUUCCAUAAUCGCGUGGAUAUGGCACGCAAGUUUCUACCGGGCACCGUAAAUGUCCGACUGGAGCCGUUCGGGCGGCUAUAAACAGACCUCAGGCCCGAAGCGUGGCGGCACCUGCCGCCGGUGGUAAAAAAGAUCGGAAGAGCACACGUCU

Variants of: B1
Test: aptazyme ON/OFF ratio, guanine; higher = stronger switching; co-transcriptional cleavage with and without guanine

| Variant | aptazyme ON/OFF ratio |
| --- | --- |
| U8C G9A U10C C13G | 1.1 |
| U7A U8C G9C U10G U11G C12U C13U | 1.1 |
| U7C U8C G9A U10A U11C C12U C13A | 1.15 |
| U8C G9U U11G C12G C13G | 1.1 |
| U7A U8C U10C U11C C12U C13A | 1.06 |
| U7C U8A G9A U10A U11A C12U | 1.19 |
| U7A G9C U10G U11C C13U | 1.03 |
| U8A U10A U11A C13U | 1.06 |
| U7A U8C G9A U10A U11C C12U C13U | 1.05 |
| U7A U8G G9U U10G U11A C12G C13U | 1.02 |
| U7C U8A U11G C12U C13U | 1.37 |
| U7A U8G G9U U10A U11C C12G C13G | 1.27 |
| U7C G9C U10C U11G C13G | 1.05 |
| U7A G9A U10C U11C C12A C13A | 1.06 |
| U11A C12G C13U | 1.42 |
| U7C U8A G9U U10C U11A C12U C13G | 1.09 |
| U7G U8C U11A C13A | 1.14 |
| U7C U8A G9U U10C U11C C12U | 1.08 |
| U7A U8A U11G | 1.25 |
| U7G U8A G9U U10G C12G | 1.07 |
| U8A G9U U10G U11C C12G | 1.07 |
| U7A U8G U11A C13G | 1.4 |
| U7G U8G U10C U11G C12U C13U | 1.41 |
| U7C G9U U10A U11G | 1.31 |

| Variant | aptazyme ON/OFF ratio |
| --- | --- |
| U7G G9U U10A U11C C12A C13A | 1.24 |
| U7G U8G U10A C12A C13G | 1.3 |
| U7C U8A G9A U10C C12G | 1.2 |
| U7G U8C G9C U11C C12A C13G | 1.21 |
| U7G U8A U10A C12G C13A | 1.23 |
| U8A G9U U10G U11G C13G | 1.06 |
| U7C G9A U10A U11G C12G C13G | 1.08 |
| U7A U8A G9C U10G C12G C13A | 1.22 |
| U8C G9U C12U | 1.42 |
| U7C G9C U10C U11C C12A C13U | 1.04 |
| U7G U8C G9A U10A U11G C12G C13A | 1.08 |
| U7G U8A G9C U10A U11C | 1.06 |
| U7G U8G G9A U10G C12A C13G | 1.07 |
| U7G U8C G9U U11C | 2.88 |
| U7G G9U U10C U11C C13A | 1.05 |
| U7G G9A U10A U11G C13A | 1.09 |
| U7A U8A U10A U11C C12A | 1.04 |
| U7A U8G G9A U10C U11A C12A C13U | 1.19 |
| U7A U8C G9C U10A U11C C13A | 1.41 |
| U7A U8G G9A C12G C13A | 1.19 |
| U7G U8A G9U U10A C12A C13G | 1.06 |
| U7C U8C G9A U10C U11A C13A | 1.41 |
| U8A G9U U10A U11C C12G | 1.09 |
| U7A U8G G9A U10C U11A C13G | 1.1 |

| Variant | aptazyme ON/OFF ratio |
| --- | --- |
| U7C G9C U10G U11A C12A C13G | 1.09 |
| U7C U8C G9C U11A C12U C13G | 1.16 |
| U8C G9A U10C U11C C12G C13U | 1.16 |
| U7A U8G | 1.13 |
| U8C C12U C13A | 1.26 |
| U7C G9C U10A U11G C13U | 1.09 |
| U7A U8G G9A U11C C13A | 1.12 |
| U7G U8G G9C U10G U11A C12U | 1.23 |
| U7A U8A G9U C12U | 1.32 |
| U7C U8G U11G C12A C13G | 1.08 |
| U7G U8C G9U U10A U11G C12G C13A | 1.13 |
| U8A G9U U10G U11C C12A C13G | 1.03 |
| U7A U8A G9C U10G U11C C13G | 1.04 |
| U7G U8G G9A U10C U11A C12U | 1.18 |
| U7G U8G G9C U10G U11G C12A C13A | 1.09 |
| U7A U8G G9U U10A U11A C12U C13U | 1.2 |
| U7A U8C G9U U10C U11G C12U C13G | 1.18 |
| U8G G9U C12G | 1.64 |
| U7A G9A U10G C12A | 1.13 |
| U8C U10G U11G C12G | 1.25 |
| U7A U8C G9A C12U C13A | 1.07 |
| U7G U8A G9C C12G C13A | 1.02 |
| U7G U8G G9U U10G U11G C12A C13U | 1.06 |
| U8G G9C U10G U11A C12U C13G | 1.15 |

| Variant | aptazyme ON/OFF ratio |
| --- | --- |
| U7A U8A C12U C13G | 1.24 |
| U7G U10G U11G C12G | 1.15 |
| U7C U8G G9U U10A U11G C12U C13A | 1.11 |
| C12A C13A | 1.34 |
| U7A U8C G9U U11A C13G | 1.07 |
| G9U U10A C12G C13G | 1.33 |
| U8A U10G C13G | 1.23 |
| U8C U10G U11G C12U C13U | 1.23 |
| U7C U8A G9A U10G C13A | 1.17 |
| U7A U8A G9A U10C U11A C12G C13G | 1.11 |
| U7G G9A U10A U11G C12A | 1.13 |
| U7G U8A G9A U10C U11A C12G | 1.15 |
| U7A G9A U11C C12G C13A | 1.18 |
| U8G G9A U10A U11A C13G | 1.01 |
| U7C U8G G9C U10A U11G C12A C13A | 1.08 |
| U7C U8A G9A U10G U11A C12A C13U | 1.17 |
| U7G U8C G9U U10G C12G C13A | 1.28 |
| U7A U8C U10C U11A C13A | 1.15 |
| U7G U8G G9A U10G U11G C12U C13G | 1.27 |
| U7A U8C G9A U10C U11G C12G C13G | 1.29 |
| U7G U8C G9C U10A U11C C12G C13A | 1.33 |
| U7A U8A G9C U10C C12U | 1.07 |
| U7A U8C G9C U10A U11A C12G C13U | 1.07 |
| U7G U8C G9C U10G C12G | 1.12 |

| Variant | aptazyme ON/OFF ratio |
| --- | --- |
| U7A U8C G9C U10A C13G | 1.07 |
| U7G U10A C12U C13U | 1.25 |
| U7C U8C G9C U10A C12G C13A | 1.11 |
| U7G U8G G9C U10C U11C C12G C13G | 1.06 |
| U7C U8A G9A U10C U11G C12G | 1.31 |
| U8A G9U C12A C13U | 1.15 |
| U7C U8C G9U U10C U11G C12G | 1.16 |
| U7C U8A G9A U10C C12A C13A | 1.14 |
| U7G U8G G9U U10G U11C C13A | 1.18 |
| U7G U8A G9C U10G U11A C12G C13A | 1.01 |
| U7G U8C U10C U11A C12U C13U | 1.04 |
| U7A U8C G9U U11A C12U | 1.28 |
| U7G G9U U11C C13A | 1.37 |
| U7A G9U U10A U11G C13A | 1.11 |
| U7G U8C U10G U11G C12A | 1.18 |
| U7G U8G G9C U10C C12G C13G | 1.09 |
| U7A U11C C13G | 1.07 |
| U7A U8G U10C U11G | 1.29 |
| U7G U8A G9A U10G U11G C12A | 1.14 |
| U10G U11A C13A | 1.15 |
| U7G G9U C12G C13U | 1.36 |
| U8G G9U U11A C12G C13G | 1.23 |
| G9U U10A U11A C12A C13U | 1.41 |
| U7G G9U U11G C12A C13U | 1.26 |

| Variant | aptazyme ON/OFF ratio |
| --- | --- |
| U8G G9A U11C C12U C13A | 1.25 |
| U7A U8A G9U U10A U11G C12A C13U | 1.18 |
| U8A G9A U11G C12G C13U | 1.27 |
| U7A U8A G9U U10A U11A C12A C13U | 1.18 |
| G9C U10A U11G C12G C13U | 1.16 |
| U7G G9U U10G U11G C13U | 1.3 |
| U7G U8G G9A U10G C12A C13U | 1.32 |
| U7G U8C G9C U10C U11C | 1.05 |
| U7C U8A G9C U10C C12A C13U | 1.06 |
| U7A U8C G9U U10G U11C C12A C13G | 1.15 |
| U7G U8C G9C U10G C13U | 1.33 |
| U7C G9C C12U C13U | 1.02 |
| U7A U8A G9C U11G | 1.47 |
| U7A U8A G9C U11A C13A | 1.21 |
| U7C U8C G9U U10C U11C C12A C13G | 1.18 |
| U8G G9A U11A C12A C13U | 1.15 |
| U7A U8G G9U U10A U11G C12U C13U | 1.18 |
| U7C U8G U10G U11C C12A | 1.34 |
| U8A G9A U10C U11C C12A C13G | 1.1 |
| U7A U8G G9A C12U | 1.63 |
| U8C G9C U10G U11G C12G C13G | 1.1 |
| G9U U10G | 4.12 |
| U7C G9U U10G U11G C12G C13U | 1.08 |
| U7A U8G G9A U11C C12U | 1.39 |

| Variant | aptazyme ON/OFF ratio |
| --- | --- |
| U7A U8A G9A U10A U11A C12A C13A | 1.35 |
| U8A G9A U10A U11G C12U C13A | 1.3 |
| U8G G9A U10G U11A C12G C13U | 1.24 |
| U8A G9U U11C C12A C13U | 1.11 |
| U8C U10C U11G C12U C13G | 1.28 |
| U7A U8C C12A C13A | 1.28 |
| U7C U8G G9C U10G U11G C12U | 1.29 |
| U7G U8G G9U U10A U11A C13A | 1.14 |
| U7C U8A G9U U10A U11G C12G C13U | 1.12 |
| U7A U8C U10C U11A C12G C13A | 1.17 |
| U7G U8G G9C U11C C12U | 2.49 |
| U8A G9C U11C C12A C13G | 1.05 |
| U7A U8G U10C U11C C13G | 1.13 |
| U7C U8A G9U U10A C12U | 1.19 |
| U8C G9A U10G U11C C12U C13U | 1.28 |
| U10G C13A | 1.13 |
| U7A U11A C12U C13G | 1.36 |
| U7C U8G G9U U10G U11G C13A | 1.23 |
| U7C C12A | 1.61 |
| U7C U8C G9U U11C C12G C13G | 1.12 |
| U7A U8A G9C U10G C12A C13G | 1.09 |
| U8G G9U U10A U11G C12A | 1.12 |
| U8C G9C U10G U11G C12A C13A | 1.08 |
